Legend:
[1] = target: SARS-CoV-2 Spike S2 subdomain (aa 686-1211), 8xHis-tagged (SARS-CoV-2 Wuhan-Hu-1, UniProt P0DTC2); assay: flow cytometry on cells; conditions: one partner purified
[2] = target: SARS-CoV-2 Spike S1 subdomain (aa 2-682), 8xHis-tagged (SARS-CoV-2 Wuhan-Hu-1, UniProt P0DTC2); assay: flow cytometry on cells; conditions: one partner purified

B1: B9-scFv displayed on the 293T cell surface (pBovShow) (scFv)
VH: QVQLRESGPSLVKPSQTLSLTCTASGFSLSDKAVGWVRQAPGKALEWLGGIDTGGSTGYNPGLKSRLSITKDNSKSQISLSVSSVTTEDSATYYCTTVHQRDSCPYDSSHSQYCSYGWSCGVYNCRPAVWYRYGSCGTCDNLFSYVDAWGQGLLVTVSS
VL: QAVLNQPSSVSGSLGQRVSITCSGSSSNVGNGYVSWYQLIPGSAPRTLIYGDTSRASGVPDRFSGSRSGNTATLTISSLQAEDEADYFCASAEDSSSNAVFGSRTTLTVL
Q: What does the source list for B1?
A: binding result [1]: no binding (tested: 2 μM); binding result [2]: binds

Reference: publication PMC9678781 (The Journal of Biological Chemistry, 2022)
